Reference: patent US20250304643A1 (BAINAN BIOTECH, published 2025)
[ ]: non-standard residue; d: D form. The star is where a group is joined. C16 diacid = O=C(O)CCCCCCCCCCCCCCC(=O)*; Palmitoyl = CCCCCCCCCCCCCCCC(=O)*; Aib = CC(C)(N)C(=O)O

T1: human glucose-dependent insulinotropic polypeptide receptor (human, UniProt P48546 22-466)
T1 sequence (looked up): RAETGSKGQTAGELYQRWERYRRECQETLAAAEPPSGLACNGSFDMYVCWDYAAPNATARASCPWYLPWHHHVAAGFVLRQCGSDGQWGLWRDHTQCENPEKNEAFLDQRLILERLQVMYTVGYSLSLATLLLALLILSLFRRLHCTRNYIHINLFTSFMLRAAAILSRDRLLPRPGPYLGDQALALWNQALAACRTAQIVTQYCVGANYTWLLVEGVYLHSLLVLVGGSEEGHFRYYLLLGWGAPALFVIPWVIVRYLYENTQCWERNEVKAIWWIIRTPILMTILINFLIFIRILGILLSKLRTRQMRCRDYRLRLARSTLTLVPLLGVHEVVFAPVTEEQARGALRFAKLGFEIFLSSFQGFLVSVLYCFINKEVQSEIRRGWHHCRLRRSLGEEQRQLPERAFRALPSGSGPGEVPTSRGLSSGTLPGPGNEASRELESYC

T2: human glucagon-like peptide-2 receptor (human, UniProt O95838 1-553)
T2 sequence (looked up): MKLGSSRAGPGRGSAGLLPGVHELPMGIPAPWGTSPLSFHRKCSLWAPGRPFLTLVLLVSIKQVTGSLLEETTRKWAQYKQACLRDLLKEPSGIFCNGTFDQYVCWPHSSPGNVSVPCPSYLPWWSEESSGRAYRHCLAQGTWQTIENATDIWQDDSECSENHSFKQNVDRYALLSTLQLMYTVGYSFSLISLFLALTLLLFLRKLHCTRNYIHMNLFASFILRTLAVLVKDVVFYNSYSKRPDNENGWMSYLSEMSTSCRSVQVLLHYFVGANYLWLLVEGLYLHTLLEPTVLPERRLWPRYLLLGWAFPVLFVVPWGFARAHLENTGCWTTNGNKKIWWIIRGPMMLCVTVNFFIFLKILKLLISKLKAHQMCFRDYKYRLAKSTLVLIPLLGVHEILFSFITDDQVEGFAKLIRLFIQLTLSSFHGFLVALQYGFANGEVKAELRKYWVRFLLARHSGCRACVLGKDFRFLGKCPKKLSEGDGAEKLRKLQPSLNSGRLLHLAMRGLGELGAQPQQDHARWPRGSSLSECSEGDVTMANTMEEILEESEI

B1: Compound no. 23 (peptide)
peptide: {C16 diacid}-H[Aib]DGTFISDYST[Aib]LDKLAARDFINWLIETKITK-OH
SMILES: CC[C@H](C)[C@H](NC(=O)[C@H](Cc1ccccc1)NC(=O)[C@H](CC(=O)O)NC(=O)[C@H](CCCNC(=N)N)NC(=O)[C@H](C)NC(=O)[C@H](C)NC(=O)[C@H](CC(C)C)NC(=O)[C@H](CCCCN)NC(=O)[C@H](CC(=O)O)NC(=O)[C@H](CC(C)C)NC(=O)C(C)(C)NC(=O)[C@@H](NC(=O)[C@H](CO)NC(=O)[C@H](Cc1ccc(O)cc1)NC(=O)[C@H](CC(=O)O)NC(=O)[C@H](CO)NC(=O)[C@@H](NC(=O)[C@H](Cc1ccccc1)NC(=O)[C@@H](NC(=O)CNC(=O)[C@H](CC(=O)O)NC(=O)C(C)(C)NC(=O)[C@H](Cc1c[nH]cn1)NC(=O)CCCCCCCCCCCCCCC(=O)O)[C@@H](C)O)[C@@H](C)CC)[C@@H](C)O)C(=O)N[C@@H](CC(N)=O)C(=O)N[C@@H](Cc1c[nH]c2ccccc12)C(=O)N[C@@H](CC(C)C)C(=O)N[C@H](C(=O)N[C@@H](CCC(=O)O)C(=O)N[C@H](C(=O)N[C@@H](CCCCN)C(=O)N[C@H](C(=O)N[C@H](C(=O)N[C@@H](CCCCN)C(=O)O)[C@@H](C)O)[C@@H](C)CC)[C@@H](C)O)[C@@H](C)CC
B2: Compound no. 21 (peptide)
peptide: {C16 diacid}-H[Aib]EGTFISDYST[Aib]LDKLAARDFINWLIQTKITK-OH
SMILES: CC[C@H](C)[C@H](NC(=O)[C@H](Cc1ccccc1)NC(=O)[C@H](CC(=O)O)NC(=O)[C@H](CCCNC(=N)N)NC(=O)[C@H](C)NC(=O)[C@H](C)NC(=O)[C@H](CC(C)C)NC(=O)[C@H](CCCCN)NC(=O)[C@H](CC(=O)O)NC(=O)[C@H](CC(C)C)NC(=O)C(C)(C)NC(=O)[C@@H](NC(=O)[C@H](CO)NC(=O)[C@H](Cc1ccc(O)cc1)NC(=O)[C@H](CC(=O)O)NC(=O)[C@H](CO)NC(=O)[C@@H](NC(=O)[C@H](Cc1ccccc1)NC(=O)[C@@H](NC(=O)CNC(=O)[C@H](CCC(=O)O)NC(=O)C(C)(C)NC(=O)[C@H](Cc1c[nH]cn1)NC(=O)CCCCCCCCCCCCCCC(=O)O)[C@@H](C)O)[C@@H](C)CC)[C@@H](C)O)C(=O)N[C@@H](CC(N)=O)C(=O)N[C@@H](Cc1c[nH]c2ccccc12)C(=O)N[C@@H](CC(C)C)C(=O)N[C@H](C(=O)N[C@@H](CCC(N)=O)C(=O)N[C@H](C(=O)N[C@@H](CCCCN)C(=O)N[C@H](C(=O)N[C@H](C(=O)N[C@@H](CCCCN)C(=O)O)[C@@H](C)O)[C@@H](C)CC)[C@@H](C)O)[C@@H](C)CC
B3: Compound no. 17 (peptide)
peptide: {C16 diacid}-H[Aib]DGTFISDYST[Aib]LDNLAARDFINWLIQTKITK-OH
SMILES: CC[C@H](C)[C@H](NC(=O)[C@H](Cc1ccccc1)NC(=O)[C@H](CC(=O)O)NC(=O)[C@H](CCCNC(=N)N)NC(=O)[C@H](C)NC(=O)[C@H](C)NC(=O)[C@H](CC(C)C)NC(=O)[C@H](CC(N)=O)NC(=O)[C@H](CC(=O)O)NC(=O)[C@H](CC(C)C)NC(=O)C(C)(C)NC(=O)[C@@H](NC(=O)[C@H](CO)NC(=O)[C@H](Cc1ccc(O)cc1)NC(=O)[C@H](CC(=O)O)NC(=O)[C@H](CO)NC(=O)[C@@H](NC(=O)[C@H](Cc1ccccc1)NC(=O)[C@@H](NC(=O)CNC(=O)[C@H](CC(=O)O)NC(=O)C(C)(C)NC(=O)[C@H](Cc1c[nH]cn1)NC(=O)CCCCCCCCCCCCCCC(=O)O)[C@@H](C)O)[C@@H](C)CC)[C@@H](C)O)C(=O)N[C@@H](CC(N)=O)C(=O)N[C@@H](Cc1c[nH]c2ccccc12)C(=O)N[C@@H](CC(C)C)C(=O)N[C@H](C(=O)N[C@@H](CCC(N)=O)C(=O)N[C@H](C(=O)N[C@@H](CCCCN)C(=O)N[C@H](C(=O)N[C@H](C(=O)N[C@@H](CCCCN)C(=O)O)[C@@H](C)O)[C@@H](C)CC)[C@@H](C)O)[C@@H](C)CC
B4: Compound no. 19 (peptide)
peptide: {C16 diacid}-H[Aib]EGTFISDYST[Aib]LDNLAARDFINWLIQTKITK-OH
SMILES: CC[C@H](C)[C@H](NC(=O)[C@H](Cc1ccccc1)NC(=O)[C@H](CC(=O)O)NC(=O)[C@H](CCCNC(=N)N)NC(=O)[C@H](C)NC(=O)[C@H](C)NC(=O)[C@H](CC(C)C)NC(=O)[C@H](CC(N)=O)NC(=O)[C@H](CC(=O)O)NC(=O)[C@H](CC(C)C)NC(=O)C(C)(C)NC(=O)[C@@H](NC(=O)[C@H](CO)NC(=O)[C@H](Cc1ccc(O)cc1)NC(=O)[C@H](CC(=O)O)NC(=O)[C@H](CO)NC(=O)[C@@H](NC(=O)[C@H](Cc1ccccc1)NC(=O)[C@@H](NC(=O)CNC(=O)[C@H](CCC(=O)O)NC(=O)C(C)(C)NC(=O)[C@H](Cc1c[nH]cn1)NC(=O)CCCCCCCCCCCCCCC(=O)O)[C@@H](C)O)[C@@H](C)CC)[C@@H](C)O)C(=O)N[C@@H](CC(N)=O)C(=O)N[C@@H](Cc1c[nH]c2ccccc12)C(=O)N[C@@H](CC(C)C)C(=O)N[C@H](C(=O)N[C@@H](CCC(N)=O)C(=O)N[C@H](C(=O)N[C@@H](CCCCN)C(=O)N[C@H](C(=O)N[C@H](C(=O)N[C@@H](CCCCN)C(=O)O)[C@@H](C)O)[C@@H](C)CC)[C@@H](C)O)[C@@H](C)CC
B5: Compound no. 22 (peptide)
peptide: {C16 diacid}-H[Aib]DGTFISDYST[Aib]LDKLAARDFIEWLIQTKITK-OH
SMILES: CC[C@H](C)[C@H](NC(=O)[C@H](Cc1ccccc1)NC(=O)[C@H](CC(=O)O)NC(=O)[C@H](CCCNC(=N)N)NC(=O)[C@H](C)NC(=O)[C@H](C)NC(=O)[C@H](CC(C)C)NC(=O)[C@H](CCCCN)NC(=O)[C@H](CC(=O)O)NC(=O)[C@H](CC(C)C)NC(=O)C(C)(C)NC(=O)[C@@H](NC(=O)[C@H](CO)NC(=O)[C@H](Cc1ccc(O)cc1)NC(=O)[C@H](CC(=O)O)NC(=O)[C@H](CO)NC(=O)[C@@H](NC(=O)[C@H](Cc1ccccc1)NC(=O)[C@@H](NC(=O)CNC(=O)[C@H](CC(=O)O)NC(=O)C(C)(C)NC(=O)[C@H](Cc1c[nH]cn1)NC(=O)CCCCCCCCCCCCCCC(=O)O)[C@@H](C)O)[C@@H](C)CC)[C@@H](C)O)C(=O)N[C@@H](CCC(=O)O)C(=O)N[C@@H](Cc1c[nH]c2ccccc12)C(=O)N[C@@H](CC(C)C)C(=O)N[C@H](C(=O)N[C@@H](CCC(N)=O)C(=O)N[C@H](C(=O)N[C@@H](CCCCN)C(=O)N[C@H](C(=O)N[C@H](C(=O)N[C@@H](CCCCN)C(=O)O)[C@@H](C)O)[C@@H](C)CC)[C@@H](C)O)[C@@H](C)CC
B6: Compound no. 20 (peptide)
peptide: {C16 diacid}-H[Aib]DGTFISDYST[Aib]LDALAARDFIEWLIQTKITK-OH
SMILES: CC[C@H](C)[C@H](NC(=O)[C@H](Cc1ccccc1)NC(=O)[C@H](CC(=O)O)NC(=O)[C@H](CCCNC(=N)N)NC(=O)[C@H](C)NC(=O)[C@H](C)NC(=O)[C@H](CC(C)C)NC(=O)[C@H](C)NC(=O)[C@H](CC(=O)O)NC(=O)[C@H](CC(C)C)NC(=O)C(C)(C)NC(=O)[C@@H](NC(=O)[C@H](CO)NC(=O)[C@H](Cc1ccc(O)cc1)NC(=O)[C@H](CC(=O)O)NC(=O)[C@H](CO)NC(=O)[C@@H](NC(=O)[C@H](Cc1ccccc1)NC(=O)[C@@H](NC(=O)CNC(=O)[C@H](CC(=O)O)NC(=O)C(C)(C)NC(=O)[C@H](Cc1c[nH]cn1)NC(=O)CCCCCCCCCCCCCCC(=O)O)[C@@H](C)O)[C@@H](C)CC)[C@@H](C)O)C(=O)N[C@@H](CCC(=O)O)C(=O)N[C@@H](Cc1c[nH]c2ccccc12)C(=O)N[C@@H](CC(C)C)C(=O)N[C@H](C(=O)N[C@@H](CCC(N)=O)C(=O)N[C@H](C(=O)N[C@@H](CCCCN)C(=O)N[C@H](C(=O)N[C@H](C(=O)N[C@@H](CCCCN)C(=O)O)[C@@H](C)O)[C@@H](C)CC)[C@@H](C)O)[C@@H](C)CC

The binders below were run against T1, human glucose-dependent insulinotropic … (assay: cell-based or functional assay).

Row | Efficacy GIPR | Binder
1 | 107% | B1
2 | 86% | B2
3 | 99% | Palmitoyl-HADGTFISDYSTILD[Aib]LAARDFINWLIQTKITKNDWKHNITQ-OH [Compound no. 16]
4 | 98% | B3
5 | 98% | B4
6 | 91% | B5
7 | 106% | Palmitoyl-HADGTFISDYSTILELLAARDFINWLIQTKITKNDWKHNITQ-OH [Compound no. 15]
8 | 93% | B6

These binders were tested against T2, human glucagon-like peptide-2 receptor (assay: cell-based or functional assay).

Row | Efficacy GLP-2R | logEC50 GLP-2R | Binder
9 | 86% | 8.8 | B1
10 | 58% | – | B2
11 | 64% | – | Palmitoyl-HADGTFISDYSTILD[Aib]LAARDFINWLIQTKITKNDWKHNITQ-OH [Compound no. 16]
12 | 90% | – | B3
13 | 81% | – | B4
14 | 95% | – | B5
15 | 70% | – | Palmitoyl-HADGTFISDYSTILELLAARDFINWLIQTKITKNDWKHNITQ-OH [Compound no. 15]
16 | 88% | – | B6
